Measured values published in the supplement of paper PMC9112550, “Optimization of the antimicrobial peptide Bac7 by deep mutational scanning” (BMC Biology, 2022).

Test system: Escherichia coli TOP10
Test: shrunken log2 fold change of peptide-encoding DNA abundance (4.5 h post-induction vs induction); higher = less antimicrobial activity (less host growth inhibition)
Conditions: time post-induction: 4.5 h; library: site-saturation at positions 5, 18, 19, 20
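Also: peptides expressed intracellularly from a pBAD plasmid library in pooled LB shake-flask culture, induced with 0.3% L-arabinose, DNA abundance read by NGS, three biological replicates, DESeq2 with apeglm shrinkage.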

| Sequence | shrunken log2 fold change |
| --- | --- |
| RRIRFRPPRLPRPRPRPSHYPRP | -0.762 |
| RRIRFRPPRLPRPRPRPSKQPRP | -0.101 |
| RRIRFRPPRLPRPRPRPSKVPRP | -0.293 |
| RRIRFRPPRLPRPRPRPSLCPRP | -0.348 |
| RRIRFRPPRLPRPRPRPSLGPRP | 0.0257 |
| RRIRFRPPRLPRPRPRPSLHPRP | -0.558 |
| RRIRFRPPRLPRPRPRPSLKPRP | -0.196 |
| RRIRFRPPRLPRPRPRPSMMPRP | -0.941 |
| RRIRFRPPRLPRPRPRPSNAPRP | -0.165 |
| RRIRFRPPRLPRPRPRPSQRPRP | 0.384 |
| RRIRFRPPRLPRPRPRPSRRPRP | -0.0576 |
| RRIRFRPPRLPRPRPRPSVAPRP | 0.882 |
| RRIRFRPPRLPRPRPRPSVFPRP | -0.165 |
| RRIRFRPPRLPRPRPRPSVSPRP | -0.2 |
| RRIRFRPPRLPRPRPRPSWDPRP | -0.152 |
| RRIRFRPPRLPRPRPRPSYDPRP | -0.0248 |
| RRIRFRPPRLPRPRPRPTCGPRP | 0.00559 |
| RRIRFRPPRLPRPRPRPTEVPRP | -0.0247 |
| RRIRFRPPRLPRPRPRPTFAPRP | 0.0698 |
| RRIRFRPPRLPRPRPRPTFIPRP | -0.44 |
| RRIRFRPPRLPRPRPRPTGCPRP | 0.125 |
| RRIRFRPPRLPRPRPRPTKFPRP | -0.355 |
| RRIRFRPPRLPRPRPRPTKSPRP | 0.106 |
| RRIRFRPPRLPRPRPRPTKTPRP | -0.0652 |
| RRIRFRPPRLPRPRPRPTMAPRP | 0.185 |

| Sequence | shrunken log2 fold change |
| --- | --- |
| RRIRFRPPRLPRPRPRPTNMPRP | -0.712 |
| RRIRFRPPRLPRPRPRPTPIPRP | 0.485 |
| RRIRFRPPRLPRPRPRPTSDPRP | -0.206 |
| RRIRFRPPRLPRPRPRPTSFPRP | 0.0329 |
| RRIRFRPPRLPRPRPRPTSRPRP | -0.291 |
| RRIRFRPPRLPRPRPRPTVSPRP | -0.00542 |
| RRIRFRPPRLPRPRPRPTWDPRP | 0.0928 |
| RRIRFRPPRLPRPRPRPTWLPRP | 0.299 |
| RRIRFRPPRLPRPRPRPVAFPRP | -0.141 |
| RRIRFRPPRLPRPRPRPVCAPRP | 0.198 |
| RRIRFRPPRLPRPRPRPVCDPRP | -0.255 |
| RRIRFRPPRLPRPRPRPVCEPRP | 0.182 |
| RRIRFRPPRLPRPRPRPVCKPRP | -0.139 |
| RRIRFRPPRLPRPRPRPVECPRP | -0.17 |
| RRIRFRPPRLPRPRPRPVESPRP | -0.0712 |
| RRIRFRPPRLPRPRPRPVFNPRP | -0.461 |
| RRIRFRPPRLPRPRPRPVGLPRP | 0.0115 |
| RRIRFRPPRLPRPRPRPVIQPRP | -0.414 |
| RRIRFRPPRLPRPRPRPVISPRP | -0.674 |
| RRIRFRPPRLPRPRPRPVKGPRP | -0.178 |
| RRIRFRPPRLPRPRPRPVKIPRP | -0.0378 |
| RRIRFRPPRLPRPRPRPVKLPRP | 0.294 |
| RRIRFRPPRLPRPRPRPVKMPRP | -0.0692 |
| RRIRFRPPRLPRPRPRPVKNPRP | -0.0401 |
| RRIRFRPPRLPRPRPRPVLRPRP | 0.113 |

| Sequence | shrunken log2 fold change |
| --- | --- |
| RRIRFRPPRLPRPRPRPVMEPRP | 0.352 |
| RRIRFRPPRLPRPRPRPVNTPRP | -0.377 |
| RRIRFRPPRLPRPRPRPVPQPRP | 0.261 |
| RRIRFRPPRLPRPRPRPVQEPRP | 0.0623 |
| RRIRFRPPRLPRPRPRPVRTPRP | 0.227 |
| RRIRFRPPRLPRPRPRPVTTPRP | 0.173 |
| RRIRFRPPRLPRPRPRPVVHPRP | -0.106 |
| RRIRFRPPRLPRPRPRPVWAPRP | 0.137 |
| RRIRFRPPRLPRPRPRPVWKPRP | -0.0844 |
| RRIRFRPPRLPRPRPRPVYSPRP | -0.12 |
| RRIRFRPPRLPRPRPRPVYTPRP | -1.09 |
| RRIRFRPPRLPRPRPRPWAWPRP | 0.174 |
| RRIRFRPPRLPRPRPRPWAYPRP | -0.201 |
| RRIRFRPPRLPRPRPRPWDEPRP | -0.264 |
| RRIRFRPPRLPRPRPRPWFAPRP | -0.582 |
| RRIRFRPPRLPRPRPRPWFDPRP | -0.101 |
| RRIRFRPPRLPRPRPRPWFHPRP | -0.714 |
| RRIRFRPPRLPRPRPRPWFRPRP | -0.151 |
| RRIRFRPPRLPRPRPRPWFWPRP | -0.285 |
| RRIRFRPPRLPRPRPRPWFYPRP | -0.587 |
| RRIRFRPPRLPRPRPRPWGLPRP | -0.168 |
| RRIRFRPPRLPRPRPRPWHAPRP | -0.162 |
| RRIRFRPPRLPRPRPRPWLIPRP | -0.441 |
| RRIRFRPPRLPRPRPRPWLNPRP | -0.189 |
| RRIRFRPPRLPRPRPRPWNHPRP | -0.141 |

| Sequence | shrunken log2 fold change |
| --- | --- |
| RRIRFRPPRLPRPRPRPWNMPRP | -0.24 |
| RRIRFRPPRLPRPRPRPWNQPRP | 0.0676 |
| RRIRFRPPRLPRPRPRPWNSPRP | -0.976 |
| RRIRFRPPRLPRPRPRPWPIPRP | -0.0205 |
| RRIRFRPPRLPRPRPRPWPVPRP | 0.139 |
| RRIRFRPPRLPRPRPRPWPYPRP | 0.0261 |
| RRIRFRPPRLPRPRPRPWRFPRP | 0.22 |
| RRIRFRPPRLPRPRPRPWRYPRP | -0.161 |
| RRIRFRPPRLPRPRPRPWSEPRP | -0.173 |
| RRIRFRPPRLPRPRPRPWSLPRP | -0.529 |
| RRIRFRPPRLPRPRPRPWSYPRP | -0.48 |
| RRIRFRPPRLPRPRPRPWTKPRP | 0.0163 |
| RRIRFRPPRLPRPRPRPWWAPRP | -0.377 |
| RRIRFRPPRLPRPRPRPWWGPRP | -0.00459 |
| RRIRFRPPRLPRPRPRPWWRPRP | -0.471 |
| RRIRFRPPRLPRPRPRPWYLPRP | -0.549 |
| RRIRFRPPRLPRPRPRPWYVPRP | -0.757 |
| RRIRFRPPRLPRPRPRPYFEPRP | -0.617 |
| RRIRFRPPRLPRPRPRPYFWPRP | -0.241 |
| RRIRFRPPRLPRPRPRPYGGPRP | -0.00865 |
| RRIRFRPPRLPRPRPRPYGIPRP | -0.00674 |
| RRIRFRPPRLPRPRPRPYHHPRP | -1.16 |
| RRIRFRPPRLPRPRPRPYIEPRP | -0.504 |
| RRIRFRPPRLPRPRPRPYIIPRP | -0.395 |
| RRIRFRPPRLPRPRPRPYKTPRP | -0.166 |

| Sequence | shrunken log2 fold change |
| --- | --- |
| RRIRFRPPRLPRPRPRPYLKPRP | -1.36 |
| RRIRFRPPRLPRPRPRPYLPPRP | -0.216 |
| RRIRFRPPRLPRPRPRPYNDPRP | -0.641 |
| RRIRFRPPRLPRPRPRPYNLPRP | -0.322 |
| RRIRFRPPRLPRPRPRPYPGPRP | 0.00399 |
| RRIRFRPPRLPRPRPRPYPQPRP | -0.356 |
| RRIRFRPPRLPRPRPRPYQEPRP | -0.0819 |
| RRIRFRPPRLPRPRPRPYQQPRP | 0.00163 |
| RRIRFRPPRLPRPRPRPYQSPRP | -0.00405 |
| RRIRFRPPRLPRPRPRPYQVPRP | -0.153 |
| RRIRFRPPRLPRPRPRPYRIPRP | -0.34 |
| RRIRFRPPRLPRPRPRPYRKPRP | -0.186 |
| RRIRFRPPRLPRPRPRPYSHPRP | -1.77 |
| RRIRFRPPRLPRPRPRPYSKPRP | -0.996 |
| RRIRFRPPRLPRPRPRPYTRPRP | -0.369 |
| RRIRFRPPRLPRPRPRPYWYPRP | -0.675 |
| RRIRGRPPRLPRPRPRPACLPRP | 0.792 |
| RRIRGRPPRLPRPRPRPACWPRP | 1.08 |
| RRIRGRPPRLPRPRPRPADAPRP | 1 |
| RRIRGRPPRLPRPRPRPADDPRP | 0.563 |
| RRIRGRPPRLPRPRPRPAFFPRP | 0.787 |
| RRIRGRPPRLPRPRPRPAFVPRP | 0.373 |
| RRIRGRPPRLPRPRPRPAGHPRP | 0.562 |
| RRIRGRPPRLPRPRPRPAHGPRP | 0.204 |
| RRIRGRPPRLPRPRPRPAHIPRP | 0.0667 |

| Sequence | shrunken log2 fold change |
| --- | --- |
| RRIRGRPPRLPRPRPRPAKDPRP | 1.84 |
| RRIRGRPPRLPRPRPRPAKQPRP | 0.199 |
| RRIRGRPPRLPRPRPRPALIPRP | 0.737 |
| RRIRGRPPRLPRPRPRPANCPRP | 0.147 |
| RRIRGRPPRLPRPRPRPANEPRP | -0.0603 |
| RRIRGRPPRLPRPRPRPANSPRP | 0.186 |
| RRIRGRPPRLPRPRPRPAPSPRP | 0.806 |
| RRIRGRPPRLPRPRPRPAPVPRP | 0.925 |
| RRIRGRPPRLPRPRPRPASGPRP | 0.625 |
| RRIRGRPPRLPRPRPRPASHPRP | 0.252 |
| RRIRGRPPRLPRPRPRPATVPRP | 0.244 |
| RRIRGRPPRLPRPRPRPAVDPRP | 0.896 |
| RRIRGRPPRLPRPRPRPAWEPRP | 1.01 |
| RRIRGRPPRLPRPRPRPAWMPRP | 0.554 |
| RRIRGRPPRLPRPRPRPAYGPRP | -0.0354 |
| RRIRGRPPRLPRPRPRPAYTPRP | -0.166 |
| RRIRGRPPRLPRPRPRPCAHPRP | 0.251 |
| RRIRGRPPRLPRPRPRPCALPRP | 0.594 |
| RRIRGRPPRLPRPRPRPCCAPRP | 1.55 |
| RRIRGRPPRLPRPRPRPCCNPRP | -0.265 |
| RRIRGRPPRLPRPRPRPCFWPRP | 0.67 |
| RRIRGRPPRLPRPRPRPCGRPRP | 0.799 |
| RRIRGRPPRLPRPRPRPCHCPRP | -0.017 |
| RRIRGRPPRLPRPRPRPCHMPRP | -0.00127 |
| RRIRGRPPRLPRPRPRPCHTPRP | -0.0963 |
